Measurements: PMC10786891, “Massively parallel profiling of RNA-targeting CRISPR-Cas13d”
Numbering of substitutions follows the chain as printed. In names and notes the source's numbering stands.

T1: EsCas13d, nuclease-dead (Eubacterium siraeum, UniProt B0MS50, R295A;H300A;R849A;H854A)
T1 sequence: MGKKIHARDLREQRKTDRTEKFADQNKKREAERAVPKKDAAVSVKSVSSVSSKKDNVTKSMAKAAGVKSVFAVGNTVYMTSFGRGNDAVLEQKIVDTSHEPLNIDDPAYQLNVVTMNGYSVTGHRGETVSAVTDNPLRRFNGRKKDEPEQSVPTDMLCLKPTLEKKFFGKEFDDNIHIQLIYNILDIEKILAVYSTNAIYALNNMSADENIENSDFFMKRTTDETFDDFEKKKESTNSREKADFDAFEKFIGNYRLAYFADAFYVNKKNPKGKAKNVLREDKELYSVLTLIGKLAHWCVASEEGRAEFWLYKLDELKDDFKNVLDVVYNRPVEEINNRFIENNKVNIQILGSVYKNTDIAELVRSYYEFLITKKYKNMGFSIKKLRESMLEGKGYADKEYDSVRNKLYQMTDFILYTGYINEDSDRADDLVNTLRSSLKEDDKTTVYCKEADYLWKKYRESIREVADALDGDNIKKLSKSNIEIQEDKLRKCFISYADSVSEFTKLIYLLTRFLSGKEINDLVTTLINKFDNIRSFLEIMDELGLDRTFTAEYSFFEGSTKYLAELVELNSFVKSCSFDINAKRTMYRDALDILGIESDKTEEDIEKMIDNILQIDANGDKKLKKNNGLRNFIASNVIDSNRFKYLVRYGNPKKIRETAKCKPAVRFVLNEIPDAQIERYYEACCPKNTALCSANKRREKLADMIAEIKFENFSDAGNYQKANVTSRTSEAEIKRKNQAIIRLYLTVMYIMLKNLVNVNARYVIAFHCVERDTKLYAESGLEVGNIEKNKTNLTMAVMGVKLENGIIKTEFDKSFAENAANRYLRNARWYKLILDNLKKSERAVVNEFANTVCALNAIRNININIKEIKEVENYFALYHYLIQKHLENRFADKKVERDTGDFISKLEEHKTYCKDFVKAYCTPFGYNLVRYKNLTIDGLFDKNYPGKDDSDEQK

B1: target 3 C1U,A18G (mixed)
RNA 1: CACCCGUGCAAAAUUGCAGGGGUCUAAAACGACCUGAAUAUUUCAGAUCAAA
RNA 2: GGGAAUGGAUCCACAUCUACGAAUUCGUUUUUGGUCUGAAAUAUUCAGGUUUGCAGAUCGGAAGAGCACACGU
B2: target 3 insC 3' of 5,insC 3' of 4 (mixed)
RNA 1: B1 RNA 1
RNA 2: GGGAAUGGAUCCACAUCUACGAAUUCGUUUUUGAUCUGAAAUAUUCACGCGUCUGCAGAUCGGAAGAGCACACGU
B3: target 3 G3C,A5U (mixed)
RNA 1: B1 RNA 1
RNA 2: B1 RNA 2 with G34A, A47U, G49C, U51C
B4: target 3 C1U,G3C (mixed)
RNA 1: B1 RNA 1
RNA 2: B1 RNA 2 with G34A, G49C
B5: target 3 insU 3' of 11,insA 3' of 2 (mixed)
RNA 1: B1 RNA 1
RNA 2: B2 RNA 2 with A43U, U44A, C46U, A47C, C48A, C50G, G51U, U52A
B6: target 3 C6G,U7C (mixed)
RNA 1: B1 RNA 1
RNA 2: B1 RNA 2 with G34A, U45C, C46G, U51C
B7: target 3 insC 3' of 7,insC 3' of 3 (mixed)
RNA 1: B1 RNA 1
RNA 2: B2 RNA 2 with A47C, C48A, C50G, G51C
B8: target 3 G4U,C6G (mixed)
RNA 1: B1 RNA 1
RNA 2: B1 RNA 2 with G34A, C46G, G48U, U51C
B9: target 3 C1A,A5C (mixed)
RNA 1: B1 RNA 1
RNA 2: B1 RNA 2 with G34A, A47C, U51A
B10: target 3 insC 3' of 21,insG 3' of 5 (mixed)
RNA 1: B1 RNA 1
RNA 2: GGGAAUGGAUCCACAUCUACGAAUUCGUUUUCUGAUCUGAAAUAUUCAGGGUCUGCAGAUCGGAAGAGCACACGU
B11: target 3 C1A,A18G (mixed)
RNA 1: B1 RNA 1
RNA 2: B1 RNA 2 with U51A
B12: target 3 A18G (mixed)
RNA 1: B1 RNA 1
RNA 2: B1 RNA 2 with U51C
B13: target 3 C1G,A18G (mixed)
RNA 1: B1 RNA 1
RNA 2: B1 RNA 2 with U51G
B14: target 1 G12A,A18U (mixed)
RNA 1: CACCCGUGCAAAAAUGCAGGGGUCUAAAACUGAGCGGAUAACCUCUCUAUGG
RNA 2: GGGAAUGGAUCCACAUCUACGAAUUCGUACCAUUGAGAGAUUAUCCGCUCACCGAGAUCGGAAGAGCACACGU
B15: target 1 insC 3' of 12,insU 3' of 4 (mixed)
RNA 1: B14 RNA 1
RNA 2: GGGAAUGGAUCCACAUCUACGAAUUCGUACCAUAGAGAGGCUUAUCCGCUUCACCGAGAUCGGAAGAGCACACGU

These binders were tested against T1, EsCas13d, nuclease-dead (assay: crRNA (strand 1, pre-loaded); Mg2+; 40 mM Tris-HCl pH 7.5, 150 mM NaCl, 6 mM MgCl2, 1 mM DTT, 0.1% Tween-20, 0.2 mg/ml BSA; 25 C; 10 min per concentration, then washed). Settings: tags: His6-TwinStrep-SUMO cleaved; N-terminal SNAP kept (SNAP-Surface 488); label: 3' end held by stalled T7 RNA polymerase.
Binder B1 has a Kd of 43 ± 7 nM. With B2 the Kd was 11.6 ± 0.65 nM. B3 was tested, and the Kd was 25 ± 2.6 nM. B4 showed a Kd of 49.5 ± 15.5 nM. In the case of B5, the Kd is reported as 56.5 ± 8.5 nM. In the case of B6, the Kd is reported as 60.5 ± 5 nM. Work on B7 yielded a Kd of 97 ± 33 nM. Work on B8 yielded a Kd of 68.5 ± 15 nM. For B9, the Kd was 58.5 ± 10 nM. In the case of B10, the Kd is reported as 81 ± 15.5 nM. Work on B11 yielded a Kd of 48.5 ± 14 nM. In the case of B12, the Kd is reported as 19.1 ± 1.7 nM. Work on B13 yielded a Kd of 18.6 ± 2.6 nM. For B14, the Kd was 25.2 ± 2.7 nM. B15 was tested, and the Kd was 7.5 ± 0.8 nM.
